The record followed here is the supplement of paper PMC11811203.

To fix the notation:
B1: THAP1; numbered along this chain (parent)
chain: MVQSCSAYGCKNRYDKDKPVSFHKFPLTRPSLCKEWEAAVRRKNFKPTKYSSICSEHFTPDCFKRECNNKLLKENAVPTIFLCTEPHDKKEDLLEPQEQLPPPPLPPPVSQVDAAIGLLMPPLQTPVNLSVFCDHNYTVEDTMHQRKRIHQLEQQVEKLRKKLKTAQQRCRRQERQLEKLKEVVHFQKEKDDVSERGYVILPNDYFEIVEVPA

The variants in the series derive from B1. Kind of series: THAP1 transcriptional activity (GFP+/GFP- enrichment relative to wild-type constructs) (ratio to WT); higher = more THAP1 activity (PSMB5 reporter activation). The note with it: with PSMB5 promoter-GFP reporter. Here is the method: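 Deep mutational scan of human THAP1. Site-saturation single amino acid variant library (residues 2-213) was expressed by lentivirus at MOI ~0.3 in THAP1-knockout HEK-293T cells carrying an endogenous PSMB5 promoter-GFP knock-in reporter. Five days post-transduction, BFP+ cells were FACS-sorted into GFP dim and GFP bright populations and variants were counted by Illumina sequencing. Activity is the GFP-bright/GFP-dim read fold change, mean of 2 replicates, divided by the mean fold change of wild-type (synonymous) constructs in the same screen pool; WT = 1.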
MVQSCSAYGCKNRYDKDKPVSFHKFPLTRPSLCKEWEAAVRRKNFKPTLYSSICSEHFTPDCFKRECNNKLLKENAVPTIFLCTEPHDKKEDLLEPQEQLPPPPLPPPVSQVDAAIGLLMPPLQTPVNLSVFCDHNYTVEDTMHQRKRIHQLEQQVEKLRKKLKTAQQRCRRQERQLEKLKEVVHFQKEKDDVSERGYVILPNDYFEIVEVPA [K49L]: the THAP1 transcriptional activity was determined as 0.234. To MVQSCSAYGCKNRYDKDKPVSFHKFPLTRPSLCKEWEAAVRRKNFKPTKYSSICSEHFTPDCFKRECNNKLLKENAVPTIFLCTEPHDKKEDLLEPQEQLPPPPCPPPVSQVDAAIGLLMPPLQTPVNLSVFCDHNYTVEDTMHQRKRIHQLEQQVEKLRKKLKTAQQRCRRQERQLEKLKEVVHFQKEKDDVSERGYVILPNDYFEIVEVPA [L105C] belongs 1.32.

Consider MVQSCSAYGCKNRYDKDKPVSFHKFPLTRPSLCKEWEAAVIRKNFKPTKYSSICSEHFTPDCFKRECNNKLLKENAVPTIFLCTEPHDKKEDLLEPQEQLPPPPLPPPVSQVDAAIGLLMPPLQTPVNLSVFCDHNYTVEDTMHQRKRIHQLEQQVEKLRKKLKTAQQRCRRQERQLEKLKEVVHFQKEKDDVSERGYVILPNDYFEIVEVPA [R41I], for which the THAP1 transcriptional activity amounted to 0.146. To MVQSCSAYGCKNRYDKDKPVSFHKFPLTRPSLCKEWEAAVRRKNFKPTKYSSICSEHFTPDCFKRECNNKLLKENAVPTIFLCTEPHDKKEDLLEPQEQLPPPPLPPPVSQVDAAIGLLMPPLQTPVNLSVFCDHNYTVEDTMHQRKRIHQLEQQVEKLWKKLKTAQQRCRRQERQLEKLKEVVHFQKEKDDVSERGYVILPNDYFEIVEVPA [R160W] belongs 0.309; to MVQSCSQYGCKNRYDKDKPVSFHKFPLTRPSLCKEWEAAVRRKNFKPTKYSSICSEHFTPDCFKRECNNKLLKENAVPTIFLCTEPHDKKEDLLEPQEQLPPPPLPPPVSQVDAAIGLLMPPLQTPVNLSVFCDHNYTVEDTMHQRKRIHQLEQQVEKLRKKLKTAQQRCRRQERQLEKLKEVVHFQKEKDDVSERGYVILPNDYFEIVEVPA [A7Q], 0.1. As for MVQSCSAYGCSNRYDKDKPVSFHKFPLTRPSLCKEWEAAVRRKNFKPTKYSSICSEHFTPDCFKRECNNKLLKENAVPTIFLCTEPHDKKEDLLEPQEQLPPPPLPPPVSQVDAAIGLLMPPLQTPVNLSVFCDHNYTVEDTMHQRKRIHQLEQQVEKLRKKLKTAQQRCRRQERQLEKLKEVVHFQKEKDDVSERGYVILPNDYFEIVEVPA [K11S], the THAP1 transcriptional activity turned out to be 0.282. With MVQSCSAYGCKNRYDKDKPVSFHKFPLTRPSLCKEWEAAVRRKNFKPTKYSSICSEHFTPDCFKRECNNKLLKENAVPTIFLCTEPHDKKEDLLEPQEQLPPPPLPPPVSQVDAAIGLLMPPLQTPVNLSVFCDHNYTVEDTMHQRKRIHQLEQQVEKLRKKLKTAQQRCRRQERQLEKLKEVVHFQKEKDDVSERGYVILNNDYFEIVEVPA [P202N] the figure was 0.854. With MVQSCSAYGCKNRYDKDKPVSFHKFPLTRPSLCKEWEAAVRRKNFKPTKYSSICSEHFTPDCFKRECNNKLLKENAVPTIFLCTEPHDKKEDLLEPQEQLPPPPLPPPVSQVDAAIGLLMPPLQTPVNLSVFCDHNYTVEGTMHQRKRIHQLEQQVEKLRKKLKTAQQRCRRQERQLEKLKEVVHFQKEKDDVSERGYVILPNDYFEIVEVPA [D141G] the figure was 0.809; with MVQSCSAYGCKNRYDKDKPVSFHKFPLTRPSLCKEWEAAVRRKNFKPTKYSSICSEHFTPDCFKRECNNKLLKENAVPTIFLCTEPHDKKEDLLEPQEQLPPPPLPPPVSQVDAAIGLLMPPLQTPVNLSVFCDHNYTVEDTMHQRKRIHQLEQQVEKLRKKLKTAQQRCRRQERQLEKLKEVVHFQKEKDDVSFRGYVILPNDYFEIVEVPA [E195F], 0.67; with MVQSCSAYGCKNRYDKDKPVSFHKFPLTRPSLCKEWEAAVRRKNFKPTKYSSICSEHFTPDCFKRECNNKLLKENAVPTIFLCTEPHDKKEDLLEPQEQLPPPPLPPPVSQVDAAIGLLMPPLQTPVNLSVFCDHVYTVEDTMHQRKRIHQLEQQVEKLRKKLKTAQQRCRRQERQLEKLKEVVHFQKEKDDVSERGYVILPNDYFEIVEVPA [N136V], 0.0965.

In the case of MVQSCSAYGCKNRYDKDKPVSFHKFPLTRPSLCKEWEAAVRRKNFKPTKYPSICSEHFTPDCFKRECNNKLLKENAVPTIFLCTEPHDKKEDLLEPQEQLPPPPLPPPVSQVDAAIGLLMPPLQTPVNLSVFCDHNYTVEDTMHQRKRIHQLEQQVEKLRKKLKTAQQRCRRQERQLEKLKEVVHFQKEKDDVSERGYVILPNDYFEIVEVPA [S51P], the THAP1 transcriptional activity was 0.118. With MVQSCSAYGCKNRYDKDKPVSFHKFPLTRPSLCKEWEAAVRRKNFKPTKLSSICSEHFTPDCFKRECNNKLLKENAVPTIFLCTEPHDKKEDLLEPQEQLPPPPLPPPVSQVDAAIGLLMPPLQTPVNLSVFCDHNYTVEDTMHQRKRIHQLEQQVEKLRKKLKTAQQRCRRQERQLEKLKEVVHFQKEKDDVSERGYVILPNDYFEIVEVPA [Y50L] the figure was 0.135; with MVQSCSAYGCKNRYDKDKPVSFHKFPLTRPSLCKEWEAAVRRKNFKPTKYSSICSEHFTPDCFKRECNNKLLKENAVPTIFLCTEPHDKKEDLLEPQETLPPPPLPPPVSQVDAAIGLLMPPLQTPVNLSVFCDHNYTVEDTMHQRKRIHQLEQQVEKLRKKLKTAQQRCRRQERQLEKLKEVVHFQKEKDDVSERGYVILPNDYFEIVEVPA [Q99T], 1.16; with MVQSCSAYGCKNRYDKDKPVSFHKFPLTRPSLCKEWEAAVRRKNFKPTKYSSICSEHFTPDCFKRECNNKLLKENAVPTIFLCTEEHDKKEDLLEPQEQLPPPPLPPPVSQVDAAIGLLMPPLQTPVNLSVFCDHNYTVEDTMHQRKRIHQLEQQVEKLRKKLKTAQQRCRRQERQLEKLKEVVHFQKEKDDVSERGYVILPNDYFEIVEVPA [P86E], 2.07.

With MVQSCSAYGCKNRYDGDKPVSFHKFPLTRPSLCKEWEAAVRRKNFKPTKYSSICSEHFTPDCFKRECNNKLLKENAVPTIFLCTEPHDKKEDLLEPQEQLPPPPLPPPVSQVDAAIGLLMPPLQTPVNLSVFCDHNYTVEDTMHQRKRIHQLEQQVEKLRKKLKTAQQRCRRQERQLEKLKEVVHFQKEKDDVSERGYVILPNDYFEIVEVPA [K16G], the THAP1 transcriptional activity was 0.17. To MVQSCSAYGCKNRYDKDKPVSFHKFPLTRPSLCKEWEAAVRRKNFKPTKYSSICSEHFTPDCFKRECNNKLLKENAVPTIFLCTEPHDKKEDLLEPQEQLPPPPLPPPVSQVDAAIGLLMPPLQTCVNLSVFCDHNYTVEDTMHQRKRIHQLEQQVEKLRKKLKTAQQRCRRQERQLEKLKEVVHFQKEKDDVSERGYVILPNDYFEIVEVPA [P126C] belongs 0.294. To MVQSCSAYGCKNRYDKDKPVSFHKFPLTRPSLCKEWEAAVRRKNFKPTKYSSICSEHFTPDCFKRECNNKLLKENAVPTIFLCTEPHDKKEDLLEPQEQLPPPPLPPPVSQVDAAIGLLMPPLQTPVNLSVFCDHNYTVEDTMHQRKRIHQLEQQVEKLRKKLKTAQQRCRRRERQLEKLKEVVHFQKEKDDVSERGYVILPNDYFEIVEVPA [Q173R] belongs 0.58.

For the variant MVQSCSAYGCKNRYDKDKPVSFHKFPLTRPSLCKEWEAAVRRKNFKPTKYSSICSEHFTPDCDKRECNNKLLKENAVPTIFLCTEPHDKKEDLLEPQEQLPPPPLPPPVSQVDAAIGLLMPPLQTPVNLSVFCDHNYTVEDTMHQRKRIHQLEQQVEKLRKKLKTAQQRCRRQERQLEKLKEVVHFQKEKDDVSERGYVILPNDYFEIVEVPA [F63D], the THAP1 transcriptional activity amounted to 0.063.

As for MVQSCSAYGCKNRYDKDKPVSFHKFPLTRPSLCKEWEAAVRRKNFKPTKYSSICSEHFTPDCFKRECNNKLLKENAVPTIFLCTEPHDKKADLLEPQEQLPPPPLPPPVSQVDAAIGLLMPPLQTPVNLSVFCDHNYTVEDTMHQRKRIHQLEQQVEKLRKKLKTAQQRCRRQERQLEKLKEVVHFQKEKDDVSERGYVILPNDYFEIVEVPA [E91A], the THAP1 transcriptional activity came out at 0.844. In the case of MVQSCSAYGCKNRYDKDDPVSFHKFPLTRPSLCKEWEAAVRRKNFKPTKYSSICSEHFTPDCFKRECNNKLLKENAVPTIFLCTEPHDKKEDLLEPQEQLPPPPLPPPVSQVDAAIGLLMPPLQTPVNLSVFCDHNYTVEDTMHQRKRIHQLEQQVEKLRKKLKTAQQRCRRQERQLEKLKEVVHFQKEKDDVSERGYVILPNDYFEIVEVPA [K18D], the THAP1 transcriptional activity is 0.0802. With MVQSCSAYGCKNRYDKDKPVSFHKFPLTRPSLCKEWEAAVRRKNFKPTKYSSICSEHFTPDCFKRECNNKLLKENAVPTIFLCTEPHDKKEDLLEPQEQLPTPPLPPPVSQVDAAIGLLMPPLQTPVNLSVFCDHNYTVEDTMHQRKRIHQLEQQVEKLRKKLKTAQQRCRRQERQLEKLKEVVHFQKEKDDVSERGYVILPNDYFEIVEVPA [P102T] the figure was 0.743; with MVQSCSAYGCKNWYDKDKPVSFHKFPLTRPSLCKEWEAAVRRKNFKPTKYSSICSEHFTPDCFKRECNNKLLKENAVPTIFLCTEPHDKKEDLLEPQEQLPPPPLPPPVSQVDAAIGLLMPPLQTPVNLSVFCDHNYTVEDTMHQRKRIHQLEQQVEKLRKKLKTAQQRCRRQERQLEKLKEVVHFQKEKDDVSERGYVILPNDYFEIVEVPA [R13W], 0.232.

On to MVQSCSAYGCKNRYDKDKPVSFHKFPLTRPSLCKEWEAAVRRKNFKPTKYSSICSEFFTPDCFKRECNNKLLKENAVPTIFLCTEPHDKKEDLLEPQEQLPPPPLPPPVSQVDAAIGLLMPPLQTPVNLSVFCDHNYTVEDTMHQRKRIHQLEQQVEKLRKKLKTAQQRCRRQERQLEKLKEVVHFQKEKDDVSERGYVILPNDYFEIVEVPA [H57F], for which the THAP1 transcriptional activity came to 0.126.

For MVQSCSAYGCKNRYDKDKPVSFHKFPLTRPSLCKEWEAAVRRKNFKPTKYSSICSEHFTPDCFKRECNNKLLKENAVPTIFLCTEPHDKKEDLLEPQEQLPPPPLPPPVSQVDAAIGLLMPPLQTPVNLSVFCDHNYTVEDTMHQRKRIHQLEQQVEKLRKYLKTAQQRCRRQERQLEKLKEVVHFQKEKDDVSERGYVILPNDYFEIVEVPA [K162Y], the THAP1 transcriptional activity was determined as 0.188. To MVQSCSAYGCKNRYDKDKPVSFHKFPLTRPSLCKEWEAAVRRKNFKPTKYSSICSEHFTPDCFKRECNNKLLKENAVPTIFLCTEPHDKKEDLLEPQEQLPPPPLPPPVSQVDAAIGLLMPKLQTPVNLSVFCDHNYTVEDTMHQRKRIHQLEQQVEKLRKKLKTAQQRCRRQERQLEKLKEVVHFQKEKDDVSERGYVILPNDYFEIVEVPA [P122K] belongs 0.728; to MVQSCSAYGCKNRYDKDKPVSFHKFPLTRPSLCKEWEAAVRRKNFKPTKYSSICSEHFTPDCFKRECNNKLLKENAVPTIFLCTEPHDKKEDLLEPQEQLPPPPLPPPVSQVDAAIGLLMPPLQTPVNSSVFCDHNYTVEDTMHQRKRIHQLEQQVEKLRKKLKTAQQRCRRQERQLEKLKEVVHFQKEKDDVSERGYVILPNDYFEIVEVPA [L129S], 1.2; to MVQSCSAYGCKNRYDKDKPVSFHKFPLTRPSLCKEWEAAVRRKNFKPTKYSSICSEHFTPDCFKRECNNKLLKENAVPTIFLCTEPHDKKEDLLEPQEQLPPPPLPPPVSDVDAAIGLLMPPLQTPVNLSVFCDHNYTVEDTMHQRKRIHQLEQQVEKLRKKLKTAQQRCRRQERQLEKLKEVVHFQKEKDDVSERGYVILPNDYFEIVEVPA [Q111D], 1.06. On to MVQSCSAYGCKNRYDKDKPVSFHKFPLTRPSLCKEWEAAVRRKNFKPTKYSSICSEHFTPDCFKRECNNKLLKENAVPTIFLCTEPHDKKEDLLEPQEQLPPPPLPPPVSQVDAAIGLLMPPLQTPVNLSVFCDHNYTVEDTMHQRKRIHQLEQQVEKLRKKLKTAQQRCRRQERQLEKLKEVVHFQKEKDDVSERGYHILPNDYFEIVEVPA [V199H], for which the THAP1 transcriptional activity is 0.609.
